Source: patent US20020045192A1 (ST JUDE CHILDREN S RESEARCH HOSPITAL, published 2002)

B1: human p14Arf library peptide, residues 1-15 (peptide)
peptide: Ac-MVRRFLVTLRIRRAC-NH2
notes: also called first peptide of the human library
B2: human p14Arf library peptide, residues 6-20 (peptide)
peptide: Ac-LVTLRIRRACGPPRV-NH2
notes: also called second peptide of the human library
B3: human p14Arf library peptide, residues 11-25 (peptide)
peptide: Ac-IRRACGPPRVRVFVV-NH2
notes: also called third peptide of the human library
B4: 41-55 (human Arf peptide) (peptide)
peptide: Ac-AAVALVLMLLRSQRL-NH2
notes: also called human p14Arf library peptide, residues 41-55
B5: 46-60 (human Arf peptide) (peptide)
peptide: Ac-VLMLLRSQRLGQQPL-NH2
notes: also called human p14Arf library peptide, residues 46-60
B6: 51-65 (human Arf peptide) (peptide)
peptide: Ac-RSQRLGQQPLPRRPG-NH2
notes: also called human p14Arf library peptide, residues 51-65
B7: 56-70 (human Arf peptide) (peptide)
peptide: Ac-GQQPLPRRPGHDDGQ-NH2
notes: also called human p14Arf library peptide, residues 56-70
B8: 61-75 (human Arf peptide) (peptide)
peptide: Ac-PRRPGHDDGQRPSGG-NH2
notes: also called human p14Arf library peptide, residues 61-75
B9: 66-80 (human Arf peptide) (peptide)
peptide: Ac-HDDGQRPSGGAAAAP-NH2
notes: also called human p14Arf library peptide, residues 66-80
B10: 71-85 (human Arf peptide) (peptide)
peptide: Ac-RPSGGAAAAPRRGAQ-NH2
notes: also called human p14Arf library peptide, residues 71-85
B11: 76-90 (human Arf peptide) (peptide)
peptide: Ac-AAAAPRRGAQLRRPR-NH2
notes: also called human p14Arf library peptide, residues 76-90
B12: 81-95 (human Arf peptide) (peptide)
peptide: Ac-RRGAQLRRPRHSHPT-NH2
notes: also called human p14Arf library peptide, residues 81-95
B13: 91-105 (human Arf peptide) (peptide)
peptide: Ac-HSHPTRARRCPGGLP-NH2
notes: also called human p14Arf library peptide, residues 91-105
B14: 96-110 (human Arf peptide) (peptide)
peptide: Ac-RARRCPGGLPGHAGG-NH2
notes: also called human p14Arf library peptide, residues 96-110
B15: 101-115 (human Arf peptide) (peptide)
peptide: Ac-PGGLPGHAGGAAPGR-NH2
notes: also called human p14Arf library peptide, residues 101-115
B16: 106-120 (human Arf peptide) (peptide)
peptide: Ac-GHAGGAAPGRGAAGR-NH2
notes: also called human p14Arf library peptide, residues 106-120
B17: 111-125 (human Arf peptide) (peptide)
peptide: Ac-AAPGRGAAGRARCLG-NH2
notes: also called human p14Arf library peptide, residues 111-125
B18: 116-130 (human Arf peptide) (peptide)
peptide: Ac-GAAGRARCLGPSARG-NH2
notes: also called human p14Arf library peptide, residues 116-130
B19: 21-35 (human Arf peptide) (peptide)
peptide: Ac-RVFVVHIPRLTGEWA-NH2
notes: also called human p14Arf library peptide, residues 21-35
B20: 26-40 (human Arf peptide) (peptide)
peptide: Ac-HIPRLTGEWAAPGAP-NH2
notes: also called human p14Arf library peptide, residues 26-40
B21: 31-45 (human Arf peptide) (peptide)
peptide: Ac-TGEWAAPGAPAAVAL-NH2
notes: also called human p14Arf library peptide, residues 31-45
B22: 235-249 (Hdm2 peptide) (peptide)
peptide: Ac-WLDQDSVSDQFSVEF-NH2
notes: member of the group m17; also called H1 segment peptide
B23: 240-254 (Hdm2 peptide) (peptide)
peptide: Ac-SVSDQFSVEFEVESL-NH2
notes: member of the group m17; also called Hdm2 library peptide, residues 240-254; H1 segment peptide
B24: 245-259 (Hdm2 peptide) (peptide)
peptide: Ac-FSVEFEVESLDSEDY-NH2
notes: as for B22
B25: 270-284 (Hdm2 peptide) (peptide)
peptide: Ac-DEDDEVYQVTVYQAG-NH2
notes: also called Hdm2 library peptide, residues 270-284
B26: 210-224 (Hdm2 peptide) (peptide)
peptide: Ac-SSSSESTGTPSNPDL-NH2
notes: also called Hdm2 library peptide, residues 210-224
B27: 215-229 (Hdm2 peptide) (peptide)
peptide: Ac-STGTPSNPDLDAGVS-NH2
notes: also called Hdm2 library peptide, residues 215-229
B28: 220-234 (Hdm2 peptide) (peptide)
peptide: Ac-SNPDLDAGVSEHSGD-NH2
notes: also called Hdm2 library peptide, residues 220-234
B29: 230-244 (Hdm2 peptide) (peptide)
peptide: Ac-EHSGDWLDQDSVSDQ-NH2
notes: also called Hdm2 library peptide, residues 230-244
B30: 260-274 (Hdm2 peptide) (peptide)
peptide: Ac-SLSEEGQELSDEDDE-NH2
notes: also called Hdm2 library peptide, residues 260-274
B31: 265-279 (Hdm2 peptide) (peptide)
peptide: Ac-GQELSDEDDEVYQVT-NH2
notes: also called Hdm2 library peptide, residues 265-279
B32: 280-294 (Hdm2 peptide) (peptide)
peptide: Ac-VYQAGESDTDSFEED-NH2
notes: also called Hdm2 library peptide, residues 280-294
B33: 285-299 (Hdm2 peptide) (peptide)
peptide: Ac-ESDTDSFEEDPEISL-NH2
notes: also called Hdm2 library peptide, residues 285-299
B34: 295-309 (Hdm2 peptide) (peptide)
peptide: Ac-PEISLADYWKCTSCN-NH2
modifications: cysteine pairing not given here
notes: also called Hdm2 library peptide, residues 295-309
B35: 300-314 (Hdm2 peptide) (peptide)
peptide: Ac-ADYWKCTSCNEMNPP-NH2
modifications: cysteine pairing not given here
notes: also called Hdm2 library peptide, residues 300-314
B36: 310-324 (Hdm2 peptide) (peptide)
peptide: Ac-EMNPPLPSHCNRCWA-NH2
modifications: cysteine pairing not given here
notes: also called Hdm2 library peptide, residues 310-324
B37: 320-334 (Hdm2 peptide) (peptide)
peptide: Ac-NRCWALRENWLPEDK-NH2
notes: also called Hdm2 library peptide, residues 320-334
B38: 325-339 (Hdm2 peptide) (peptide)
peptide: Ac-LRENWLPEDKGKDKG-NH2
notes: also called Hdm2 library peptide, residues 325-339
B39: 330-344 (Hdm2 peptide) (peptide)
peptide: Ac-LPEDKGKDKGEISEK-NH2
notes: also called Hdm2 library peptide, residues 330-344
B40: 335-349 (Hdm2 peptide) (peptide)
peptide: Ac-GKDKGEISEKAKLEN-NH2
notes: also called Hdm2 library peptide, residues 335-349

Target: T1, His-tagged Hdm2 210-304 (human, UniProt Q00987 210-304)
T1 construct: Captured on the C-1 chip by anti-His antibody for the Arf peptide library SPR; Tag placed first here
T1 sequence (Q00987 210-304): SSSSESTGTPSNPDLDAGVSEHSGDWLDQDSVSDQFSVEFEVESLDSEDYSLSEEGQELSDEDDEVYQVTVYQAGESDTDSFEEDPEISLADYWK
Test: SPR, His-tagged Hdm2 210-304 captured by anti-His antibody, peptide injected 10 min, signal minus reference cell [b]
Experimental: (§1) Reactive sites remaining on the surface were blocked by reaction with ethanolamine. The His-tagged ligand was attached to the antibody by injecting a 5-10 μg/ml solution of the ligand in 10 mM HEPES, 150 mM NaCl, pH 7.4 (HBS-N buffer, Biacore) at a flow rate of 10 μL/min through the flow cell. A reference cell was prepared similarly except that no His-tagged ligand was added. Binding was measured by flowing the non-His-tagged analyte through the reference and ligand-containing flow cells in sequence. Prior to injection of ligands, the chip surfaces were equilibrated in HBS-N buffer. Changes in the SPR response due to solvent differences and the injection process were monitored by injection of HBS-N buffer alone. Regeneration of the chip surface to remove bound analyte and ligand was accomplished by two 100 μL injections of 10 mM glycine, pH 2.0 through both flow cells. Data reported is the difference in SPR signal between the flow cell containing analyte and the reference cell. Duplicate injections were made and the SPR response values reported are the average of these two injections.
Two libraries of peptides 15 amino acids in length were synthesized based on the sequence of exon 1β of mouse p19^Arf and the entire sequence of human p14^Arf. The sequence for the first peptide in each library corresponded to the first 15 amino acids of the protein sequences. […] This approach yielded two libraries of overlapping peptides spanning mouse p19^Arf residues 1-64 and human p14^Arf residues 1-132. The ability of these peptides to bind Hdm2 fragments was determined using the surface plasmon resonance (SPR) technique with a Biacore 3000 instrument. […] Library peptides were allowed to flow over the Hdm2 surface, or over a control surface lacking an Hdm2 fragment.

Row | Binder | binding result
1 | B1 | binds
2 | B2 | binds
3 | B3 | binds
4 | Ac-LRRPRHSHPTRARRC-NH2 [human p14Arf library peptide, residues 86-100 (contains the NoLS RRPR)] | binds
5 | B4 | no binding
6 | B5 | no binding
7 | B6 | no binding
8 | B7 | no binding
9 | B8 | no binding
10 | B9 | no binding
11 | B10 | no binding
12 | B11 | no binding
13 | B12 | no binding
14 | B13 | no binding
15 | B14 | no binding
16 | B15 | no binding
17 | B16 | no binding
18 | B17 | no binding
19 | B18 | no binding
20 | B19 | no binding
21 | B20 | no binding
22 | B21 | no binding

Target: T2, His-tagged mArfN37 (N-terminal 37 amino acids of mouse p19Arf with poly-His tag) (mouse)
T2 construct: Captured on the SPR chip by a covalently linked anti-His antibody; Tag placed first here; also called His-mArfN37; His-tagged mArf37
T2 chain: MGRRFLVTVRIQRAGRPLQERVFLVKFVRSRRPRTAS
Test: SPR, His-tagged mArfN37 captured by anti-His antibody, peptide injected, signal minus reference cell [c]
Experimental: as §1, with “Binding studies were performed using a Biacore 3000 surface plasmon resonance (SPR) instrument (Biacore, Inc.). A Tetra-His™ Antibody (Qiagen, Inc.; Cat. #34670) was covalently attached to a carboxymethylated gold surface (C-1 chip; Biacore, Inc.). The carboxymethyl groups on the surface were activated with N-ethyl-N′-(3-dimethylaminopropyl) carbodiimide (EDC) and N-hydroxysuccinimide (NHS) and the antibody was attached at pH 7.4 in 20 mM sodium phosphate buffer, 150 mM NaCl (PBS). Reactive” for “Reactive”
A similar approach using short synthetic peptides and SPR was used to map the segments of Hdm2 that bind mArfN37 (FIG. 5c). […] The first of these as Arf-binding segment is termed “H1” and the second is termed segment “H2”.

Row | Binder | binding result
23 | B22 | binds
24 | B23 | binds
25 | B24 | binds
26 | Ac-EVESLDSEDYSLSEE-NH2 [250-264 (Hdm2 peptide)] | binds
27 | B25 | binds
28 | Ac-SFEEDPEISLADYWK-NH2 [Hdm2 peptide, residues 290-304 of SEQ ID NO:8] | binds
29 | B26 | no binding
30 | B27 | no binding
31 | B28 | no binding
32 | B29 | no binding
33 | Ac-DSEDYSLSEEGQELS-NH2 [255-269 (Hdm2 peptide)] | no binding
34 | B30 | no binding
35 | B31 | no binding
36 | B32 | no binding
37 | B33 | no binding
38 | B34 | no binding
39 | B35 | no binding
40 | B36 | no binding
41 | Ac-LPSHCNRCWALRENW-NH2 (cysteine pairing not given here) [315-329 (Hdm2 peptide)] | no binding
42 | B37 | no binding
43 | B38 | no binding
44 | B39 | no binding
45 | B40 | no binding
